# Source: patent publication US20180195086
# Tested on: T1, piggyBac transposase (Trichoplusia ni)
# T1 sequence: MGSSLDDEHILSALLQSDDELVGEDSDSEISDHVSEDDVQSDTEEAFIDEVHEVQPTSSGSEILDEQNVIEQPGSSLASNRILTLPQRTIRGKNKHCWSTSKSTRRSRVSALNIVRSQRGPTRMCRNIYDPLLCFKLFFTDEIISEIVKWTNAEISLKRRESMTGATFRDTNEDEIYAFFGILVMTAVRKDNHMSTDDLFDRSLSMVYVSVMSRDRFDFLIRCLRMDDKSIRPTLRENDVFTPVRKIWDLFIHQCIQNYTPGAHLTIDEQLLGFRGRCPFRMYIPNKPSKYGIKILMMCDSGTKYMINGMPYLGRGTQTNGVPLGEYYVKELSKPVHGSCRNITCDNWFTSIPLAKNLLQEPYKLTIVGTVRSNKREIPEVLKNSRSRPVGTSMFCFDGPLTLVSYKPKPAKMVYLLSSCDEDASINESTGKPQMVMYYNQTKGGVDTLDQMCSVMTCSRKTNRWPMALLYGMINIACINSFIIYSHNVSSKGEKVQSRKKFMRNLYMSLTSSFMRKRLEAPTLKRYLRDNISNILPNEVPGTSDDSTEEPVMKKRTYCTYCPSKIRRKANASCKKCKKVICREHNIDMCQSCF
# Assay: cell_activity
# Settings: RFP+ HEK-293 at 28 days
sequence,measurement,value
CCCTAGAAAGATAGTCTGCGTAAAATTGACGCATGCATGCGTCAATTTTACGCATGATTATCTTTAACGTACGTCACAATATGATTATCTTTCTAGGG (double strand),activity,0.72%
